Test results as given in PMC6547859 (The Journal of Experimental Medicine, 2019).

Target: the molecule itself
Assay: SEC

B1: FLAG-tagged Regnase-1, full-length, phosphorylated (Expi293F, coexpressed with Myc-Act1 and HA-TBK1 or HA-IKKi) (natural protein, UniProt Q5D1E7 1-596, looked up)
chain: MSDPCGTKPVQESNPTMSLWSLEDRHSSQGRPQPDQDPVAKEAPTSELQMKVDFFRKLGYSSSEIHSVLQKLGVQADTNTVLGELVKHGSATERECQALTAPSPQPPLVPRGGSTPKPSTLEPSLPEEDREGSDLRPVVIDGSNVAMSHGNKEVFSCRGILLAVNWFLERGHTDITVFVPSWRKEQPRPDVPITDQHILRELEKKKILVFTPSRRVGGKRVVCYDDRFIVKLAFESDGVVVSNDTYRDLQGERQEWKRFIEERLLMYSFVNDKFMPPDDPLGRHGPSLDNFLRKKPLPSEHRKQPCPYGKKCTYGIKCRFFHPERPSRPQRSVADELRANALLSPPRTPVKDKSSQRPSPASQSSSVSLEAEPGSLDGKKLGARSSPGPHREGSPQTCAPAGRSLPVSGGSFGPTEWLAHTQDSLPYTSQECLDSGIGSLESQMSELWGVRGGSPGESGPTRGPYAGYHSYGSKVPAAPSFSPFRPAMGAGHFSVPTDYVPPPPTYPSREYWSEPYPLPPPTPVLQEPQRPSPGAGGGPWGRVGDLAKERAGVYTKLCGVFPPHLVEAVMRRFPQLLDPQQLAAEILSYKSQHLSE
modifications: phosphorylated by coexpression with Act1 and TBK1 or IKKi; phosphorylation sites identified: Ser439, Ser494, Thr505, Ser508, Ser513
stoichiometry N: 3
